# B1: SEQ ID NO: 792: inducible system polypeptide, probably Table 20 (GID-GAI) (protein)
# chain: MAPKKKRKVGIHGVPAAKRDHHHHHHQDKKTMMMNEEDDGNGMDELLAVLGYKVRSSEMADVAQKLEQLEVMMSNVQEDDLSQLATETVHYNPAELYTWLDSMLTDLNSGGSGSGSSGGSGTGPVQQDMLGLKETLEKRYFGESADGNDNICIQVIHNILDIEKILAEYITNAAYAVNNISGLDKDIIGFGKFSTVYTYDEFKDPEHHRAAFNNNDKLINAIKAQYDEFDNFLDNPRLGYFGQAFFSKEGRNYIINYGNECYDILALLSGLRHWVVHNNEEESRISRTWLYNLDKNLDNEYISTLNYLYDRITNELTNSFSKNSAANVNYIAETLGINPAEFAEQYFRFSIMKEQKNLGFNITKLREVMLDRKDMSEIRKNHKVFDSIRTKVYTMMDFVIYRYYIEEDAKVAAANKSLPDNEKSLSEKDIFVINLRGSFNDDQKDALYYDEANRIWRKLENIMHNIKEFRGNKTREYKKKDAPRLPRILPAGRDVSAFSKLMYALTMFLDGKEINDLLTTLINKFDNIQSFLKVMPLIGVNAKFVEEYAFFKDSAKIADELRLIKSFARMGEPIADARRAMYIDAIRILGTNLSYDELKALADTFSLDENGNKLKKGKHGMRNFIINNVISNKRFHYLIRYGDPAHLHEIAKNEAVVKFVLGRIADIQKKQGQNGKNQIDRYYETCIGKDKGKSVSEKVDALTKIITGMNYDQFDKKRSVIEDTGRENAEREKFKKIISLYLTVIYHILKNIVNINARYVIGFHCVERDAQLYKEKGYDINLKKLEEKGFSSVTKLCAGIDETAPDKRKDVEKEMAERAKESIDSLESANPKLYANYIKYSDEKKAEEFTRQINREKAKTALNAYLRNTKWNVIIREDLLRIDNKTCTLFRNKAVHLEVARYVHAYINDIAEVNSYFQLYHYIMQRIIMNERYEKSSGKVSEYFDAVNDEKKYNDRLLKLLCVPFGYCIPRFKNLSIEALFDRNEAAKFDKEKKKVSGNSGSGPKKKRKV
# B2: SEQ ID NO: 769: inducible system polypeptide, probably Table 20 (GID-GAI) (protein)
# chain: MIEKKKSFAKGMGVKSTLVSGSKVYMTTFAEGSDARLEKIVEGDSIRSVNEGEAFSAEMADKNAGYKIGNAKFSHPKGYAVVANNPLYTGPVQQDMLGLKETLEKRYFGESADGNDNICIQVIHNILDIEKILAEYITNAAYAVNNISGLDKDIIGFGKFSTVYTYDEFKDPEHHRAAFNNNDKLINAIKAQYDEFDNFLDNPRLGYFGQAFFSKEGRNYIINYGNECYDILALLSGLRHWVVHNNEEESRISRTWLYNLDKNLSGGSGSGSSGGSGTMAASDEVNLIESRTVVPLNTWVLISNFKVAYNILRRPDGTFNRHLAEYLDRKVTANANPVDGVFSFDVLIDRRINLLSRVYRPAYADQEQPPSILDLEKPVDGDIVPVILFFHGGSFAHSSANSAIYDTLCRRLVGLCKCVVVSVNYRRAPENPYPCAYDDGWIALNWVNSRSWLKSKKDSKVHIFLAGDSSGGNIAHNVALRAGESGIDVLGNILLNPMFGGNERTESEKSLDGKYFVTVRDRDWYWKAFLPEGEDREHPACNPFSPRGKSLEGVSFPKSLVVVAGLDLIRDWQLAYAEGLKKAGQEVKLMHLEKATVGFYLLPNNNHFHNVMDEISAFVNAECPKKKRKV
# B3: SEQ ID NO: 793: inducible system polypeptide, probably Table 20 (GID-GAI) (protein)
# chain: MLDLASLILIEKKKSFAKGMGVKSTLVSGSKVYMTTFAEGSDARLEKIVEGDSIRSVNEGEAFSAEMADKNAGYKIGNAKFSHPKGYAVVANNPLYTSGGSGSGSSGGSGTMAASDEVNLIESRTVVPLNTWVLISNFKVAYNILRRPDGTFNRHLAEYLDRKVTANANPVDGVFSFDVLIDRRINLLSRVYRPAYADQEQPPSILDLEKPVDGDIVPVILFFHGGSFAHSSANSAIYDTLCRRLVGLCKCVVVSVNYRRAPENPYPCAYDDGWIALNWVNSRSWLKSKKDSKVHIFLAGDSSGGNIAHNVALRAGESGIDVLGNILLNPMFGGNERTESEKSLDGKYFVTVRDRDWYWKAFLPEGEDREHPACNPFSPRGKSLEGVSFPKSLVVVAGLDLIRDWQLAYAEGLKKAGQEVKLMHLEKATVGFYLLPNNNHFHNVMDEISAFVNAECLDLASLIL
# B4: SEQ ID NO: 796: inducible system polypeptide, probably Table 20 (GID-GAI) (protein)
# chain: MAPKKKRKVGIHGVPAAKRDHHHHHHQDKKTMMMNEEDDGNGMDELLAVLGYKVRSSEMADVAQKLEQLEVMMSNVQEDDLSQLATETVHYNPAELYTWLDSMLTDLNSGGSGSGSSGGSGTSYDELKALADTFSLDENGNKLKKGKHGMRNFIINNVISNKRFHYLIRYGDPAHLHEIAKNEAVVKFVLGRIADIQKKQGQNGKNQIDRYYETCIGKDKGKSVSEKVDALTKIITGMNYDQFDKKRSVIEDTGRENAEREKFKKIISLYLTVIYHILKNIVNINARYVIGFHCVERDAQLYKEKGYDINLKKLEEKGFSSVTKLCAGIDETAPDKRKDVEKEMAERAKESIDSLESANPKLYANYIKYSDEKKAEEFTRQINREKAKTALNAYLRNTKWNVIIREDLLRIDNKTCTLFRNKAVHLEVARYVHAYINDIAEVNSYFQLYHYIMQRIIMNERYEKSSGKVSEYFDAVNDEKKYNDRLLKLLCVPFGYCIPRFKNLSIEALFDRNEAAKFDKEKKKVSGNSGSGPKKKRKV
# B5: SEQ ID NO: 797: inducible system polypeptide, probably Table 20 (GID-GAI) (protein)
# chain: MLDLASLILIEKKKSFAKGMGVKSTLVSGSKVYMTTFAEGSDARLEKIVEGDSIRSVNEGEAFSAEMADKNAGYKIGNAKFSHPKGYAVVANNPLYTGPVQQDMLGLKETLEKRYFGESADGNDNICIQVIHNILDIEKILAEYITNAAYAVNNISGLDKDIIGFGKFSTVYTYDEFKDPEHHRAAFNNNDKLINAIKAQYDEFDNFLDNPRLGYFGQAFFSKEGRNYIINYGNECYDILALLSGLRHWVVHNNEEESRISRTWLYNLDKNLDNEYISTLNYLYDRITNELTNSFSKNSAANVNYIAETLGINPAEFAEQYFRFSIMKEQKNLGFNITKLREVMLDRKDMSEIRKNHKVFDSIRTKVYTMMDFVIYRYYIEEDAKVAAANKSLPDNEKSLSEKDIFVINLRGSFNDDQKDALYYDEANRIWRKLENIMHNIKEFRGNKTREYKKKDAPRLPRILPAGRDVSAFSKLMYALTMFLDGKEINDLLTTLINKFDNIQSFLKVMPLIGVNAKFVEEYAFFKDSAKIADELRLIKSFARMGEPIADARRAMYIDAIRILGTNLSGGSGSGSSGGSGTMAASDEVNLIESRTVVPLNTWVLISNFKVAYNILRRPDGTFNRHLAEYLDRKVTANANPVDGVFSFDVLIDRRINLLSRVYRPAYADQEQPPSILDLEKPVDGDIVPVILFFHGGSFAHSSANSAIYDTLCRRLVGLCKCVVVSVNYRRAPENPYPCAYDDGWIALNWVNSRSWLKSKKDSKVHIFLAGDSSGGNIAHNVALRAGESGIDVLGNILLNPMFGGNERTESEKSLDGKYFVTVRDRDWYWKAFLPEGEDREHPACNPFSPRGKSLEGVSFPKSLVVVAGLDLIRDWQLAYAEGLKKAGQEVKLMHLEKATVGFYLLPNNNHFHNVMDEISAFVNAECLDLASLIL
# B6: SEQ ID NO: 770: inducible system polypeptide, probably Table 20 (GID-GAI) (protein)
# chain: MKRDHHHHHHQDKKTMMMNEEDDGNGMDELLAVLGYKVRSSEMADVAQKLEQLEVMMSNVQEDDLSQLATETVHYNPAELYTWLDSMLTDLNSGGSGSGSSGGSGTDNEYISTLNYLYDRITNELTNSFSKNSAANVNYIAETLGINPAEFAEQYFRFSIMKEQKNLGFNITKLREVMLDRKDMSEIRKNHKVFDSIRTKVYTMMDFVIYRYYIEEDAKVAAANKSLPDNEKSLSEKDIFVINLRGSFNDDQKDALYYDEANRIWRKLENIMHNIKEFRGNKTREYKKKDAPRLPRILPAGRDVSAFSKLMYALTMFLDGKEINDLLTTLINKFDNIQSFLKVMPLIGVNAKFVEEYAFFKDSAKIADELRLIKSFARMGEPIADARRAMYIDAIRILGTNLSYDELKALADTFSLDENGNKLKKGKHGMRNFIINNVISNKRFHYLIRYGDPAHLHEIAKNEAVVKFVLGRIADIQKKQGQNGKNQIDRYYETCIGKDKGKSVSEKVDALTKIITGMNYDQFDKKRSVIEDTGRENAEREKFKKIISLYLTVIYHILKNIVNINARYVIGFHCVERDAQLYKEKGYDINLKKLEEKGFSSVTKLCAGIDETAPDKRKDVEKEMAERAKESIDSLESANPKLYANYIKYSDEKKAEEFTRQINREKAKTALNAYLRNTKWNVIIREDLLRIDNKTCTLFRNKAVHLEVARYVHAYINDIAEVNSYFQLYHYIMQRIIMNERYEKSSGKVSEYFDAVNDEKKYNDRLLKLLCVPFGYCIPRFKNLSIEALFDRNEAAKFDKEKKKVSGNSGSGPKKKRKV
# Test system: mCherry expression in HEK293 FT cells
# Assay: Inducible split RfxCas13d (GIB, RAP, ABA, Dano, GRZ CID domains; NES/NLS variants) mCherry knockdown, leakiness and inducibility
# Assay type: cell-based
# Settings: inducible polypeptide systems of Tables 18-22
# Excerpt: FIG. 6A-6C is a series of schematics and graphs showing that split RfxCas13d's reconstituted and functioned to knockdown mCherry expression in HEK293 FT cells FIG. 6A is a schematic showing split sites selected throughout RfxCas13d sequence. FIG. 6B is a bar graph showing mCherry expression under 4 conditions for gibberellin-inducible, rapalog-inducible, and abscisic acid-inducible inducible split Cas13d designs. In FIG. 6B and FIG. 6C, the left-right order of the bars for each split site is the same as the left-right order of the legend for each bar graph.
# FIG. 7A-7E is a series of schematics and graphs showing a functional and inducible split Cas13d design. FIG. 7A is a bar graph showing additional split sites selected in RfxCas13d and tested with GIB CID domains. […] In FIG. 7A and FIG. 7C, the left-right order of the bars for each split site is the same as the left-right order of the legend. FIG. 7B is a schematic showing the design to compartmentalize splits. Compartmentalizing moieties facilitates the reduction of leakiness. […] FIG. 7D is a schematic showing the experiment flow for testing reversibility of the inducible split Cas13d's.
# FIG. 8A-8B is a series of schematics and graphs showing that split RfxCas13d's reconstituted upon drug-induced dimerization and knocked down mCherry expression in HEK293 FT cells. FIG. 8A is a bar graph showing quantification of system performance. The left-right order of the bars for each split site is the same as the top-down order of the legend. […] System performance in leakiness score (left axis) and induced activity (right axis) by GIB, RAP, ABA, and Dano-inducible split Cas13d designs.
# FIG. 10A-10B is a series of schematics and graphs showing performance optimization through separating split Cas13d moieties in different cellular compartments. […] The left-right order of the bars for each bar graph is the same as the top-down order of the legend.
# FIG. 11 is a series of schematics and graphs showing the testing of reversed orientation (dark grey dots) of CID domains with respect to split Cas13d pieces against original orientations (light grey dots) designed for GIB, ABA, Dano, and GRZ inducible systems.
molecule,measurement,value
B1,performance in the tested conditions,highest performance
B2,performance in the tested conditions,highest performance
B3,performance in the tested conditions,highest performance
B4,performance in the tested conditions,highest performance
B5,performance in the tested conditions,highest performance
B6,performance in the tested conditions,highest performance
